# Residue numbers refer to the chain shown, from its start.
# T1: cynomolgus monkey FcγRIIa1 extracellular domain with C-terminal His-tag (cynomolgus monkey)
# T1 construct: Expressed in FreeStyle 293 cells and purified; also called cyno FcγRIIa1; cynoFcgRIIa1; not shown: C-terminal His-tag
# T1 chain: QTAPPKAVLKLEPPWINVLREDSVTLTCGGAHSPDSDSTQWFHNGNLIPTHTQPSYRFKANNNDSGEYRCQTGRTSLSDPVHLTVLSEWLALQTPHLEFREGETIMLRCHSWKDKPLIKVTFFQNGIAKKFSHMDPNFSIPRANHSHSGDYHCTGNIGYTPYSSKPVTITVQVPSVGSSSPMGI
# T2: human FcγRIIaR extracellular domain with C-terminal His-tag (human, UniProt P12318 34-217)
# T2 construct: Expressed in FreeStyle 293 cells and purified; also called human FcγRIIa (type R); FcgRIIaR; not shown: C-terminal His-tag
# T2 chain: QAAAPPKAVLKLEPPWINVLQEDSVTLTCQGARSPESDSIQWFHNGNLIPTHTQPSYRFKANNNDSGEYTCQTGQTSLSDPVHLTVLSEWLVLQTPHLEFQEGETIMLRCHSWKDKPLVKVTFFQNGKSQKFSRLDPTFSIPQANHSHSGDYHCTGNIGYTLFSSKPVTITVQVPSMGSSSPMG
# T3: cynomolgus monkey FcγRIIa3 extracellular domain with C-terminal His-tag (cynomolgus monkey)
# T3 construct: Expressed in FreeStyle 293 cells and purified; also called cyno FcγRIIa3; cynoFcgRIIa3; not shown: C-terminal His-tag
# T3 chain: T1 chain with P95T, T121A, A128S, H133P, D135N
# T4: human FcγRIIb extracellular domain with C-terminal His-tag (human, UniProt P31994 43-217)
# T4 construct: Expressed in FreeStyle 293 cells and purified; also called humanFcgRIIb; not shown: C-terminal His-tag
# T4 sequence: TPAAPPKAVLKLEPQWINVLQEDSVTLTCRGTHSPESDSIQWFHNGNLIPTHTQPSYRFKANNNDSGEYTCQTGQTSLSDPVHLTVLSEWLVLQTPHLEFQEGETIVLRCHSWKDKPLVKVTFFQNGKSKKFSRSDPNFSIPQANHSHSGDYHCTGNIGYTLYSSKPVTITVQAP
# T5: human FcγRIIaH extracellular domain with C-terminal His-tag (human, UniProt P12318 34-217)
# T5 construct: Expressed in FreeStyle 293 cells and purified; also called human FcγRIIa (type H); FcgRIIaH; not shown: C-terminal His-tag
# T5 sequence: T2 chain with R134H
# T6: cynomolgus monkey FcγRIIa2 extracellular domain with C-terminal His-tag (cynomolgus monkey)
# T6 construct: Expressed in FreeStyle 293 cells and purified; also called cyno FcγRIIa2; cynoFcgRIIa2; not shown: C-terminal His-tag
# T6 chain: T1 chain with P95T, T121A, I127K, A128S, K130N, D135N, R142Q
# T7: cynomolgus monkey FcγRIIIaS extracellular domain with C-terminal His-tag (cynomolgus monkey, UniProt Q8SPW2 21-206 at identity 1.00))
# T7 construct: Expressed in FreeStyle 293 cells and purified; also called cyno FcγRIIIaS; cynoFcγRIIIaS; not shown: C-terminal His-tag
# T7 chain: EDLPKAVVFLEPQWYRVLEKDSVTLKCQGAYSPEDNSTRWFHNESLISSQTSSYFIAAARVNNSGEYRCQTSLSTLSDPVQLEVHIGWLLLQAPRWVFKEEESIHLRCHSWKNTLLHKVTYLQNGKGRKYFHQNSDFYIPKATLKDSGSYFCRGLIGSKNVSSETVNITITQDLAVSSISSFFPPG
# B1: M103205H795-MY172 / M103202L889-SK1 (antibody, human IgG1, kappa)
# heavy: QVTLKESGPVLVKPTETLTLTCTVSGIDLSHDDISWVRQAPGKGLEWVGIISYAGSTYYASWAKGRLTISKDTSKNQVVLTMTNMDPVDTATYYCARGVPAYSHGGDLWGQGTLVTVSSASTKGPSVFPLAPSSKSTSGGTAALGCLVKDYFPEPVTVSWNSGALTSGVHTFPAVLQSSGLYSLSSVVTVPSSSLGTQTYICNVNHKPSNTKVDKKVEPKSCDKTHTCPPCPAPELLNGPSVFLFPPKPKDTLMISRTPEVTCVVVDVSEEDPEVKFNWYVDGVEVHNAKTKPREEQYNSTYRVVSVLTVLHQDWLNGKEYKCKVSNKALPAPIEKTISKAKGQPREPQVYTLPPSREEMTKNQVSLTCLVKGFYPSDIAVEWESNGQPENNYKTTPGVLDSDGSFFLYSKLTVDKSRWQQGNVFSCSVMHEALHNHYTQKSLSLSP
# light: DIVMTQSPATLSLSPGERATLSCTSSQSVYHANWLSWFQQKPGQPPKLLIYWASTLAYGVPSRFSGSGSGTDFTLTISSLQPEDAATYYCAGGYGGGRYAFGQGTKVEIKRTVAAPSVFIFPPSDEQLKSGTASVVCLLNNFYPREAKVQWKVDNALQSGNSQESVTEQDSKDSTYSLSSTLTLSKADYEKHKVYACEVTHQGLSSPVTKSFNRGEC
# notes: Position 396 variant derived from MY052, expressed with M103202L889-SK1 as light chain
# B2: M103205H795-MY174 / M103202L889-SK1 (antibody, human IgG1, kappa)
# heavy: B1 heavy with G398I
# light: B1 light
# notes: as for B1
# B3: M103205H795-MY175 / M103202L889-SK1 (antibody, human IgG1, kappa)
# heavy: B1 heavy with G398K
# light: B1 light
# notes: as for B1
# B4: M103205H795-MY178 / M103202L889-SK1 (antibody, human IgG1, kappa)
# heavy: B1 heavy with G398Q
# light: B1 light
# notes: as for B1
# B5: M103205H795-MY173 / M103202L889-SK1 (antibody, human IgG1, kappa)
# heavy: B1 heavy with G398H
# light: B1 light
# notes: as for B1
# B6: M103205H795-MY177 / M103202L889-SK1 (antibody, human IgG1, kappa)
# heavy: B1 heavy with G398N
# light: B1 light
# notes: as for B1
# B7: M103205H795-MY176 / M103202L889-SK1 (antibody, human IgG1, kappa)
# heavy: B1 heavy with G398L
# light: B1 light
# notes: as for B1
# Biological target: T1, cynomolgus monkey FcγRIIa1 …
# Assay: SPR (Biacore); KD of SG1 divided by KD of the variant for this FcgR;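 note: relative to parent M103205H795-SG1 carrying the SG1 human heavy chain constant region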
# Procedure: (§1) The kinetic analysis of interactions between these antibodies and FcγR was carried out using BIACORE® T200 or BIACORE® 4000 (GE Healthcare). HBS-EP+ (GE Healthcare) was used as the running buffer, and the measurement temperature was set to 25° C. A chip produced by immobilizing Protein A. Protein A/G or mouse anti-human IgG kappa light chain (BD Biosciences) onto a Series S Sensor Chip CM4 or CM5 (GE Healthcare) by the amine-coupling method was used. […] After the measurement, the antibody captured on the chip was washed off by allowing reaction with 10 mM glycine-HCl, pH1.5 and 25 mM NaOH so that the chip was regenerated and used repeatedly. The sensorgrams obtained as measurement results were analyzed by the 1:1 Langmuir binding model using the BIACORE® Evaluation Software to calculate the binding rate constant ka (L/mol/s) and dissociation rate constant kd (l/s), and the dissociation constant KD (mol/L) was calculated from these values. […] Regarding such interactions, KD values were calculated using the following 1:1 binding model described in BIACORE® T100 Software Handbook BR1006-48 Edition AE.
# (§2) The resultant variants were expressed using M103202L889-SK1 as light chain and their affinity to human and cynoFcγRs were evaluated (Table 20).
row,KD fold (SG1 = 1) [fold],Binder
1,1.2,B1
2,2.1,B2
3,2.3,B3
4,1.6,B4
5,1.9,B5
6,1.7,B6
7,2.5,B7

# Biological target: T2, human FcγRIIaR extracellular domain …
# Assay: as above
# Procedure: as §1, §2
row,KD fold (SG1 = 1) [fold],Binder
1,0.4,B1
2,0.8,B2
3,0.7,B3
4,0.5,B4
5,0.6,B5
6,0.6,B6
7,0.8,B7

# Biological target: T8, human FcγRIIIaV extracellular domain with C-terminal His-tag (human, UniProt P08637 17-208)
# T8 construct: Expressed in FreeStyle 293 cells and purified; also called FcgRIIIaV; not shown: C-terminal His-tag
# T8 sequence (P08637 17-208 F176V): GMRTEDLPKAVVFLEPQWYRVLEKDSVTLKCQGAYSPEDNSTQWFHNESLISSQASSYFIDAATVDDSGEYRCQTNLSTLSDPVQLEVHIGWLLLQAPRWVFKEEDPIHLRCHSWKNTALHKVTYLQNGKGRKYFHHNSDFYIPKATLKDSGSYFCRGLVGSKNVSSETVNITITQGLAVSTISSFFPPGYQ
# Assay: as above
# Procedure: as §1, §2
row,KD fold (SG1 = 1) [fold],Binder
1,0.12,B1
2,0.12,B2
3,0.11,B3
4,0.18,B4
5,0.12,B5
6,0.13,B6
7,0.13,B7

# Biological target: T3, cynomolgus monkey FcγRIIa3 …
# Assay: as above
# Procedure: as §1, §2
row,KD fold (SG1 = 1) [fold],Binder
1,1.5,B1
2,2.7,B2
3,2.5,B3
4,2,B4
5,2.1,B5
6,2.1,B6
7,2.8,B7

# Biological target: T4, human FcγRIIb extracellular domain with …
# Assay: as above
# Procedure: as §1, §2
row,KD fold (SG1 = 1) [fold],Binder
1,2.6,B1
2,5.4,B2
3,5.5,B3
4,3.5,B4
5,4.6,B5
6,4.2,B6
7,6.6,B7

# Biological target: T5, human FcγRIIaH extracellular domain …
# Assay: as above
# Procedure: as §1, §2
row,KD fold (SG1 = 1) [fold],Binder
1,0.4,B1
2,0.9,B2
3,0.8,B3
4,0.5,B4
5,0.7,B5
6,0.7,B6
7,1,B7

# Biological target: T6, cynomolgus monkey FcγRIIa2 …
# Assay: as above
# Procedure: as §1, §2
row,KD fold (SG1 = 1) [fold],Binder
1,1.5,B1
2,3.2,B2
3,3.4,B3
4,2.4,B4
5,2.8,B5
6,2.8,B6
7,3.6,B7

# Biological target: T7, cynomolgus monkey FcγRIIIaS …
# Assay: as above
# Procedure: as §1, §2
row,KD fold (SG1 = 1) [fold],Binder
1,0.11,B1
2,0.14,B2
3,0.14,B3
4,0.12,B4
5,0.12,B5
6,0.12,B6
7,0.16,B7

# From US20200317768A1 (published 2020)
